The values that follow come from the RNAGym collection of RNA variant scans (doi:10.1073/pnas.2313332121).

Variants at the floor of the assay were thinned out.

Sequences and labels used below:
B1: TPR 5TU (parent)
chain: GGAUCUUCUCGAUCUAACAAAAAAGACAAAUCUGCCACAAAGCUUGAGAGCAUCUUCGGAUGCAGAGGCGGCAGCCUUCGGUGGCGCGAUAGCGCCAACGUUCUCAACUAUGACACGCAAAACGCGUGCUCCGUUGAAUGGAGUUUAUCAUG

Variants of B1 are the subject of the data set. The data set can be described thus: polymerase ribozyme fitness, log enrichment relative to wild type (log ratio); higher = more active; in vitro selection for triplet polymerase activity. A digest of the protocol:
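Fitness measures genotype enrichment against wild-type enrichment on a logarithmic scale, with inverse-variance-weighted averaging of replicates. The logarithm is base 2, and genotypes were kept only with ≥10 input reads and ≥1 read per output in Illumina sequencing. The sequenced libraries came from one triplicate in vitro selection round, including frozen incubation at −7 °C, of PCR-built, transcribed mutant libraries of each subunit of a heterodimeric triplet polymerase ribozyme.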
For A49C C69U G84A C93U C96U C129G U148C, the “polymerase ribozyme fitness (log ratio)” value is not above -4.2.
With G50A A73U C87A U144A the figure was not above -4.2; with G50C C93A C103G A113G A115U G140C, not above -4.2.
With A49C U55G U61A C96A U111G A119U U148C the figure was not above -4.2; with A47G G59A, 0.381; with A49C U55A G86A C99G A142U, not above -4.2.
Under A47G G62U A142G U146G stands -4.12.
A47U G70U A122G: the “polymerase ribozyme fitness (log ratio)” value is -3.45.
Under A49C A107G U151C stands not above -4.2.
Under A47C C96A C123G U151G stands not above -4.2; under G50A C93A A97G C99U U109G, not above -4.2.
Regarding G50A C75U A91U A150C, the “polymerase ribozyme fitness (log ratio)” value is not above -4.2.
Under A49C G81C C85U A98U U104C stands not above -4.2; under G50A C75U G83U C93U G141A, not above -4.2; under A49G A91G A142C, -3.71.
Under A49G U55G G88A U139C U145A stands not above -4.2; under G50A C85A, -3.59; under A49G C51A G94A G124U, -3.32.
With G48A C93G, the “polymerase ribozyme fitness (log ratio)” value is -3.69.
With A49C A115U the figure was not above -4.2.
Under A47C G124U stands -1.09; under G50A C79U A138G, not above -4.2; under G50C A73U G80A G81U C95A G100U U151C, not above -4.2.
Turning to G48U A49C G68U G74A C76A G88U C116G, the “polymerase ribozyme fitness (log ratio)” value is not above -4.2.
With A49U A73U G88A C105A U144A the figure was not above -4.2; with G48C C76A C93U G94A A138C G140A U146G, not above -4.2.
Under G50C G71U A97U stands not above -4.2; under G48A U127G, -3.5; under A47U G84U, -1.78.
Regarding A49U C96A, the “polymerase ribozyme fitness (log ratio)” value is -3.45.
Under G48A A73G C87G A89U C96A G136A stands not above -4.2; under G50A G128U, -3.21; under G48C A64G G70U G94U U144G C149A, not above -4.2.
Regarding G50C C87G, the “polymerase ribozyme fitness (log ratio)” value is not above -4.2.
Under A49C U53G U56C A119C stands not above -4.2; under A47U C114U, -1.72.
Under A47C G141C U148G stands not above -4.2; under G50C A98G, -3.37; under A47C U55A C57A G84U C96U C99U G136A G143C, not above -4.2.
Under A49C C99U U102G stands -0.308; under G48A U55A, -1.14; under G48U U77C C79G G143U, not above -4.2.
Turning to A49C C93U, the “polymerase ribozyme fitness (log ratio)” value was not above -4.2.
With A49G C54A C116G A121U, the “polymerase ribozyme fitness (log ratio)” value was -2.34.
Under A47U A97C stands 0.501; under G50A A73U C96G A98U A120U A137G, not above -4.2; under G48U G86U, -1.58.
Under A49C A137C stands not above -4.2; under A47C G50A U53G C69G U77A C85A C103G A113G G136C, not above -4.2.
In the case of A47G C85G U90C G124U, the “polymerase ribozyme fitness (log ratio)” value is not above -4.2.
With G50A A120G A122U A150U the figure was -2.03.
Under A47G G133C C149G stands -3.65; under A49C G62A C87A G140C, not above -4.2; under A49U G67A C95U C114G A142C, not above -4.2.
Turning to A47U U55G G94A, the “polymerase ribozyme fitness (log ratio)” value was -0.633.
Under A49G G50A U56A C95U U101C U111G stands not above -4.2; under G50C C54U U56A G59U, -3.48.
With G48C C99U C105G the figure was not above -4.2; with A49C U56A A113U G152U, -3.93; with G50A A64G, -3.77.
For the variant A47C C96A, the “polymerase ribozyme fitness (log ratio)” value was -0.697.
With G48C C63A G83A G133C the figure was -3.98; with A49U A60U G81U A106G C118A U134C, -3.51.
With A47G C99A A142U the figure was -2.48; with G48C C96G C103G C105G A106G, -3.96; with A49U U55A A106G, -0.994.
With A49G A52C U56A A91G G92A A121G the figure was -3.9.
Regarding A47C U56G A91U C96G C118U A122C C131U U139C U148A, the “polymerase ribozyme fitness (log ratio)” value is not above -4.2.
Under G50C C54U C87A U135C U144C stands not above -4.2; under A47U A52G A119C, -1.05; under G50C A98U U101A, not above -4.2.
For the variant G48A G67U G84U C105G, the “polymerase ribozyme fitness (log ratio)” value was not above -4.2.
As for G50A C54G U77G A97U A120G, the “polymerase ribozyme fitness (log ratio)” value was not above -4.2.
Under A47U A52G U144G stands 0.507.
With G50A U56A C87U G124A the figure was -2.44; with G48C C51A C54A C63U G68A U77C G88A C96U A142G, not above -4.2; with G48U U55G C118G C131U A137C U145A, not above -4.2.
With A49U G68C the figure was not above -4.2; with A47U U55A C87U, -2.17; with A49G C85U G117U U135C G143C, -4.06.
Regarding G48A C125U, the “polymerase ribozyme fitness (log ratio)” value is -0.97.
Under G50A C57A U127A G143U stands -4.04; under G50A U56A G88C A106G, not above -4.2; under A47G C93A C131U U134C, -0.603.
